Data taken from paper PMC11381654, “Structural insight into interleukin‐4Rα and interleukin‐5 inhibition by nanobodies from a bispecific antibody” (MedComm, 2020).

Target: human IL‐4Rα (human, UniProt P24394, N‐glycosylation sites (modelled in the crystal structure; positions not given))
Assay: cell-based or functional assay

IC50 in the IL‐4‐induced TF‐1 cell proliferation assay (blocks IL‐4 with IL‐4Rα): ~0.15 nM
IC50 in the IL‐13‐induced TF‐1 cell proliferation assay (blocks IL‐13 with IL‐4Rα): ~0.15 nM
B1: dAb1 (VHH)
VHH: QVQLVESGGGLVQPGGSLRLSCAASGDFYCMAWFRQAPGKEREAVAAIRSGGRSTYYADSVKGRFTISRDNSKNTLYLQMNSLKAEDTAVYYCAVGVDGNCRNYWGQGTLVTVSS
